Source: article PMC2796084 (Biochemistry, 2009)

Molecular target: the molecule itself
Assay: tryptophan fluorescence

B1: FtsZ-L68W (natural protein, E. coli, UniProt P0A9A6 1-383, looked up)
chain: MFEPMELTNDAVIKVIGVGGGGGNAVEHMVRERIEGVEFFAVNTDAQALRKTAVGQTIQIGSGITKGWGAGANPEVGRNAADEDRDALRAALEGADMVFIAAGMGGGTGTGAAPVVAEVAKDLGILTVAVVTKPFNFEGKKRMAFAEQGITELSKHVDSLITIPNDKLLKVLGRGISLLDAFGAANDVLKGAVQGIAELITRPGLMNVDFADVRTVMSEMGYAMMGSGVASGEDRAEEAAEMAISSPLLEDIDLSGARGVLVNITAGFDLRLDEFETVGNTIRAFASDNATVVIGTSLDPDMNDELRVTVVATGIGMDKRPEITLVTNKQVQQPVMDRYQQHGMAPLTQEQKPVAKVVNDNAPQTAKEPDYLDIPAFLRKQAD
B1: binds.
